From article PMC5531466, “Biochemical characterization of a new nicotinamidase from an unclassified bacterium thriving in a geothermal water stream microbial mat community” (PLoS ONE, 2017) come the findings set out here.

One data set concerns the target T1, (UniProt H5SPS2).
T1 construct: full-length, N-terminal 6-histidine tag (pET28a)
Nature of the data set: HPLC nicotinamidase assay, Morrison equation; also thermal shift (Tm […] °C). In kind it is biochemical.

A further data set relates to CCOC(=O)c1cccnc1. Nature of the data set: purified protein. The conditions noted are these: Fe2+ active site; C155 thiolate attack at C7 of ethylnicotinate.
The next data set concerns COC(=O)c1cccnc1. Nature of the data set: purified protein. The conditions noted are these: Fe2+ active site.
The test system of another data set is Cc1cncc(C(N)=O)c1. Put plainly: purified protein. The conditions noted are these: Fe2+ active site.
Another data set has as its system NC(=O)c1cnccn1. Put plainly: purified protein. The conditions noted are these: Fe2+ active site.

T1 sequence (H5SPS2 1-220): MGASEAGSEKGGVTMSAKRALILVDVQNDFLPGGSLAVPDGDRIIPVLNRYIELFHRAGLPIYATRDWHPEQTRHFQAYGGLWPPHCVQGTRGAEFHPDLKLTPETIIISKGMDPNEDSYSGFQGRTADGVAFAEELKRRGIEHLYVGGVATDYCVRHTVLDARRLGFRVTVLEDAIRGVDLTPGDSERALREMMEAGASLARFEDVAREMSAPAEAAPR

In general, Ki refers to the dissociation constant of the complex between target and ligand, obtained from inhibition or displacement. Turning to `O=Cc1cccnc1` [nicotinaldehyde], at (UniProt H5SPS2), the Ki was 180 ± 1 nM.
By Km is commonly meant the substrate concentration at which the rate is half of its maximum. In general, kcat refers to the maximal rate divided by the concentration of active sites. As usually defined, the kcat/Km is the second-order rate constant that governs catalysis at low substrate concentration. Consider “UbNic (nicotinamidase) (uncultured Acidobacteriota bacterium)”, for which the Michaelis constant (Km) worked out at 1.31 ± 0.03 mM in the data set with CCOC(=O)c1cccnc1, 1.08 ± 0.11 mM in the data set on COC(=O)c1cccnc1, 1.09 ± 0.20 mM in the data set on Cc1cncc(C(N)=O)c1 and 0.33 ± 0.05 mM with NC(=O)c1cnccn1. For the same compound, the kcat with CCOC(=O)c1cccnc1 came to 3.7 ± 0.3 s⁻¹; with COC(=O)c1cccnc1, 54.5 ± 0.8 s⁻¹; in the data set with Cc1cncc(C(N)=O)c1, 43.7 ± 0.3 s⁻¹; in the data set with NC(=O)c1cnccn1, 18.7 ± 0.3 s⁻¹. The kcat/Km in the data set with CCOC(=O)c1cccnc1 was 2800 M⁻¹ s⁻¹; with COC(=O)c1cccnc1, 50500 M⁻¹ s⁻¹; in the data set with Cc1cncc(C(N)=O)c1, 40100 M⁻¹ s⁻¹; in the data set on NC(=O)c1cnccn1 it was 56700 M⁻¹ s⁻¹.
